Data as given in patent publication US20200369772A1 (ABBA THERAPEUTICS, published 2020).

T1: human PD-L2 (full-length, on cells) (human, UniProt Q9BQ51 20-273)
T1 chain: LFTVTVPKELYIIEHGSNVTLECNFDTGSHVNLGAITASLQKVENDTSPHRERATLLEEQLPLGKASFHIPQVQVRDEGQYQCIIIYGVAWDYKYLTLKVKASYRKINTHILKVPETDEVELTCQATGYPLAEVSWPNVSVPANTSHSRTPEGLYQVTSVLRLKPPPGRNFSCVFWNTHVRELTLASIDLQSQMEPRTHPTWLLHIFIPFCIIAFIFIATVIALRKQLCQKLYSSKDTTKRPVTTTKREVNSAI

T2: human PD-L2 (full-length, on cells) (human, UniProt Q9BQ51 20-273)
T2 construct: whole, on cells; CHO-K1 cells stably expressing full-length human PD-L2; also endogenous on NCI-H226 and transfected in Jurkat cells; also called hPD-L2; CHO-K1/hPD-L2
T2 sequence (looked up): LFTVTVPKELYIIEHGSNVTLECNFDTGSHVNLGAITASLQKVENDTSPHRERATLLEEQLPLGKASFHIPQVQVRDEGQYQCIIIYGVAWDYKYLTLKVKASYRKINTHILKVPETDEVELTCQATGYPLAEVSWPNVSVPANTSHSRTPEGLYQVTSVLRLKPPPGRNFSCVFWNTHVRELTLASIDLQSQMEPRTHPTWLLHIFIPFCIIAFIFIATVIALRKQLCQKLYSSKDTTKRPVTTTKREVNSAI

T3: mouse PD-L2 (full-length, on cells) (mouse, UniProt Q9WUL5 20-247)
T3 construct: whole, on cells; HEK293 cells stably expressing full-length mouse PD-L2
T3 sequence (looked up): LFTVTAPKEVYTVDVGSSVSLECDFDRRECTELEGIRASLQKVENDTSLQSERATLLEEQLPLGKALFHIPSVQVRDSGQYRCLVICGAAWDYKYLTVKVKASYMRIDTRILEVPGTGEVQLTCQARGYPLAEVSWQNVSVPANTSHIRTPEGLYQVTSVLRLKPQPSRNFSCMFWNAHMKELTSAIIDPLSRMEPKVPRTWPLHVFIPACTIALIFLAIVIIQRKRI

T4: recombinant human PD-L2-Fc-biotin (human, UniProt Q9BQ51 20-220, biotin)
T4 chain: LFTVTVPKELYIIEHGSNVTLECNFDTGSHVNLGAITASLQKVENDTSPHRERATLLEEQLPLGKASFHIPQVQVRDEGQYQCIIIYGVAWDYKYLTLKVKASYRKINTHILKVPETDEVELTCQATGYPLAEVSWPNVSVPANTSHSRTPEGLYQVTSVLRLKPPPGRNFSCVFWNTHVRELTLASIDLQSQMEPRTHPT


How the values were obtained:
[1] = biological target: T1, human PD-L2 (full-length, on cells); assay: FACS, NCI-H226 cells
How it was run: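 Binding to endogenous PD-L2 on NCI-H226 human lung squamous carcinoma cells (1.5×10⁵) was measured by flow cytometry on a BD FACSCalibur. They were then stained with APC-labelled goat anti-rat IgG (1:2000) for 20 min at 4° C. Binding EC50 came from non-linear fitting of percentage of maximal binding against concentration in GraphPad Prism.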

[2] = biological target: T2, human PD-L2 (full-length, on cells); assay: hybridoma supernatant screen on cells expressing human PD-L2
[3] = biological target: T5, human PD-L1 (full-length, on cells) (human, UniProt Q9NZQ7 19-290); assay: FACS on HEK293 cells stably expressing full-length human PD-L1
T5 construct: whole, on cells; HEK293 cells stably expressing full-length human PD-L1
Procedure: (§1) The ability of anti-PD-L2 antibodies binding to mouse PD-L2, human PD-L1 or cyno PD-L2 was determined by FACS. HEK293 cells stably expressing full-length monkey PD-L2, mouse PD-L2 or human PD-L1 were established, subcloned and verified. For binding assay, 1.5×10⁵ cells in 100 μl of FACSwash buffer were incubated with individual anti-PD-L2 antibodies (0.5 μg/ml) for 30 min. After three times of washing, the cells were re-suspended in FACSwash buffer containing FITC-labelled goat-anti-rat IgG (Thermo Fisher, 1:1000) or APC-labelled goat-anti-ratIgG (Biolegend, Clone Poly4054) at a 1:2000 dilution for 20 min at 4° C., washed three times and subsequently subjected to FACS analysis. FACS data was analysed using FlowJo Software and depicted as histograms including secondary antibody only controls.

[4] = biological target: T3, mouse PD-L2 (full-length, on cells); assay: FACS on HEK293 cells stably expressing full-length mouse PD-L2
Procedure: as §1

[5] = biological target: T1, human PD-L2 (full-length, on cells); assay: FACS, CHO-K1 expressing human PD-L2
How it was run: (§2)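 Binding to CHO-K1 cells stably expressing full-length human PD-L2 was measured by flow cytometry on a BD FACSCalibur. They were then stained for 20 min at 4° C with APC-labelled anti-rat IgG or anti-human IgG Fc, matching the antibody format. Binding EC50 came from non-linear curve fitting of percentage of maximal binding against concentration in GraphPad Prism.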

[6] = biological target: T4, recombinant human PD-L2-Fc-biotin; assay: blocking of hPD-L2 binding to HEK293-hPD-1 cells
How it was run: (§3)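 Recombinant human PD-L2-Fc-biotin (5 ng/ml, 100 pM) was preincubated in 100 μl with serially diluted antibody (0.03 ng/ml-0.5 μg/ml) for 60 min at 4° C, and the mixture was then placed on 1.5×10⁵ HEK293 cells stably expressing human PD-1 for 30 min at 4° C. Ligand bound to the cells was detected by flow cytometry after 20 min at 4° C with fluorochrome-conjugated streptavidin, and control wells set the 0% and 100% binding levels. The IC50 was obtained by non-linear curve fitting in GraphPad Prism.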

[7] = biological target: T1, human PD-L2 (full-length, on cells); assay: blocking of hPD-1 binding to CHO-K1/hPD-L2 cells
How it was run: (§4)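 Human PD-L2 was stably expressed in CHO-K1 cells, and 1.5×10⁵ of these cells were exposed to serially diluted antibody (0.25 ng/ml-4 μg/ml) for 30 min at 4° C and then washed. Recombinant human PD-1-mouse Fc was added at 0.5 μg/ml for 30 min at 4° C, followed by fluorochrome-conjugated anti-mouse IgG2a (1:200) for 20 min at 4° C.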

[8] = biological target: T1, human PD-L2 (full-length, on cells); assay: FACS binding to CHO-K1 cells expressing human PD-L2
How it was run: as §2

[9] = biological target: T1, human PD-L2 (full-length, on cells); assay: FACS blocking of PD-1 binding to CHO-K1/hPD-L2; high antigen concentration
How it was run: as §4

[10] = biological target: T4, recombinant human PD-L2-Fc-biotin; assay: blocking of PD-L2 - PD-1 interaction (cell binding); low antigen concentration
How it was run: as §3

[11] = biological target: T2, human PD-L2 (full-length, on cells); assay: FACS binding on cells expressing human PD-L2 (per the examples)
[12] = biological target: T1, human PD-L2 (full-length, on cells); assay: FACS binding to CHO-K1 cells expressing human PD-L2
How it was run: as §2

T5 sequence (Q9NZQ7 19-290): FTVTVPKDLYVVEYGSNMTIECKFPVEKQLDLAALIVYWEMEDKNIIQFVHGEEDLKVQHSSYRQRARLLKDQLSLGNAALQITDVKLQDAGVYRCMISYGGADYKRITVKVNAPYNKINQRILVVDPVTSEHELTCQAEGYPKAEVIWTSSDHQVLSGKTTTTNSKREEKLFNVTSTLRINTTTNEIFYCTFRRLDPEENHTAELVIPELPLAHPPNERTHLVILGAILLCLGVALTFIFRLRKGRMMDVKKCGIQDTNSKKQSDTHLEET

Row | EC50 [1] | binding result [2] | binding result [3] | binding result [4] | EC50 [5] | IC50 [6] | IC50 [7] | EC50 [8] | IC50 [9] | IC50 [10] | binding result [11] | EC50 [12] | Binder
1 | 98.9 pM | binds | no binding (tested: 0.5 µg/ml) | no binding (tested: 0.5 µg/ml) | 265 pM | 13 pM | 370 pM | 420 pM | 127 pM | 10.3 pM |  |  | 12A1-D4 (antibody, V domains shown, Both formats under this entry) VH: QVQLQESGPGLVKPSGTLSLTCAVSGGSISSNNWWSWVRQPPGKGLEWIGEIFHVGSTNYNPSLKSRVTISVDKSKNQFSLKLSSLTAADTAVYYCARMVGATGHYYGMDVWGQGTTVTVSS VL: DIQLTQSPSFLSASVGDRVTITCRASQGISSSLAWYQQKPGKAPKFLIYAASTLQSGVPSRFSGSGSGTEFTLTISSLQPEDFATYYCQQLNSYPKSWTFGQGTKVEIK
2 | 644 pM | binds | no binding (tested: 0.5 µg/ml) | no binding (tested: 0.5 µg/ml) | 872 pM | 29 pM | 1200 pM |  | 733 pM | 37.5 pM |  |  | 9A3-C7 (antibody, V domains shown, Both formats under this entry) VH: QVQLVESGGGLVKPGGSLRLSCAASGFSLSDYYMSWIRQAPGRGLEWVSYISSSGSTIYYVDSVKGRFTISRDNAKNSLYLQINSLRAEDTAVYHCARAQWLPDFDYWGQGTLVTVSS VL: QSALTQPPSASGSPGQSVTISCTGTSSDVGGYNYVSWYQHHPGKVPKLMIYEVSKRPSGVPDRFSGSKSGNTASLTVSGLQAEDEADYYCTSFADNNNVGFGGGTKLTVLG
3 | 146 pM |  | no binding (tested: 0.5 µg/ml) | no binding (tested: 0.5 µg/ml) | 408 pM | 14 pM | 400 pM | 380 pM | 342 pM | 25.2 pM | binds | 370 pM | 10D1-G1 (antibody, V domains shown, Both formats under this entry) VH: QVQLQESGPGLVKPSGTLSLTCAVSGGSISSSYWWSWVRQPPGKGLEWIGEIFHIGSTNYNPSLRSRVTISVVKSKNQFSLNLNSVTAADTAVYFCARVSGGYGYFSGMDVWGQGTTVTVSS VL: DIQMTQSPSSLSASVGDRVTITCRASQGIRNDLGWYQQKPGKAPKRLIYGASSLQSGVPSRFSGSGSGTEFTLTISSLQPEDFATYYCLQHNSYPRTFGQGTKVEIK
4 |  |  |  |  |  |  |  |  |  |  | binds |  | 2-19H2 (antibody, V domains shown, VH of 19B3-B3 M23K.M63L.HC with VL of 2C4-E4; kappa; also called 2-H192) VH: QVQLVQSGAEVKKPGASVKVSCKASGYTFTNYAIHWVRQAPGQRLEWMGWINTGLGKPKYSQLFQDRVTITRDTSASTASMELSGLRSDDTAVYYCARVGWELYFDYWGQGTLVTVSS VL: DIQMTQSPSTLSASVGDRVTITCRASQTISSWLAWYQQKPGKAPNLLIYKASSLESGVPSRFSGSGSGTEFTLTISSLQPDDFATYYCQQYYSYWTFGQGTKVEIK

Second part, the binder before the results:

Row | Binder | EC50 [1] | binding result [2] | binding result [3] | binding result [4] | EC50 [5] | IC50 [6] | IC50 [7] | EC50 [8] | IC50 [9] | IC50 [10] | binding result [11] | EC50 [12]
5 | 7H5-C5 (antibody, V domains shown, Both formats under this entry) VH: QVQLVESGGGLVKPGGSLRLSCAASGFSLSDYYMSWTRQAPGRGLEWVSFISSSGSTIYYVDSVKGRFTISRDHAKNSLYLQINSLRAEDTAVYYCARAQWLPDFDYWGQGTLVTVSS VL: QSALTQPPSASGSPGQSVTISCTGTSSDVSGYNYVSWYQHHPDKAPKLLIYEVNKRPSGVPARFSGSKSGNTASLTVSGLQAEDEADYYCTSFADNNNVVFGGGTKLTVLG | 517 pM | binds | no binding (tested: 0.5 µg/ml) | no binding (tested: 0.5 µg/ml) | 765 pM | 26 pM | 930 pM | 1600 pM | 580 pM | 31.1 pM |  | 
6 | 10A9-D2 (antibody, V domains shown, Both formats under this entry) VH: QVQLQESGPGLVKPSETLSLTCAVSGGSISSSYWWSWVRQPPGKGLEWVGEVFHVGVTNYNPSLKSRVTISVDKSKNQFSLKLTSVTAADTAVYYCARVTGTTGYYHGLDVWGQGTTVTVFS VL: DIQMTQSPSSLSASVGDRVTITCRASQGIRNDLGWYQQKPGKVPKRLIYAASSLQSGIPSRFSGSGSGTEFTLTISSLQPEDFATYYCLQHNNYPRTFGQGTKVEIK | 77.6 pM | binds | no binding (tested: 0.5 µg/ml) | no binding (tested: 0.5 µg/ml) | 252 pM | 12 pM | 340 pM | 380 pM | 198 pM | 10.3 pM |  | 320 pM
7 | 19B3-B3 (antibody, V domains shown, Both formats under this entry) VH: QVQLVQSGAEVKKPGASVKVSCMASGYTFTNYAIHWVRQAPGQRLEWMGWINTGLGKPKYSQMFQDRVTITRDTSASTASMELSGLRSDDTAVYYCARVGWELYFDYWGQGTLVTVSS VL: DIQMTQSPSTLSASVGDRVTITCRASQSISSLLAWYQQKPGKAPKLLIYKASSLESGVPSRFSGSGSGTEFTLTISSLQPDDFATYFCQQYNSYWTFGQGTKVEIK | 177 pM | binds | no binding (tested: 0.5 µg/ml) | no binding (tested: 0.5 µg/ml) | 338 pM | 17 pM | 400 pM | 340 pM | 464 pM | 24.8 pM |  | 370 pM
